Measurements: the supplement of paper PMC12042874
± gives the uncertainty stated by the source.

test: amyloid nucleation score (Sup35N fusion, yeast selection) (log enrichment); library NNK3; higher = more nucleation; inactive = no reads after selection
Procedure, shortened: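 DiMSum was used to calculate nucleation scores as log enrichment of output over input reads, centred on the mode score of non-aggregating sequences. Sequences with fewer than 100 input reads were not scored. Input and output came from Illumina sequencing of plasmid inserts in psi-negative yeast expressing peptides of 20 random codons fused to Sup35N, induced 24 hours with 100 μM copper sulfate and then grown 7 days at 30°C on medium lacking adenine and uracil.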

| Substance | amyloid nucleation score |
| --- | --- |
| FSSCDHRFWTFLIKFMLLAL | inactive |
| FSSYTWNPL | inactive |
| FSVIMFMNLRAQFASMDRGG | 1.59 ± 0.12 |
| FSVLVSCSWGMKFI | inactive |
| FSVYVAG | inactive |
| FSYSSRGVYYG | -0.649 ± 0.98 |
| FSYVPQAILYLCLYYNVVHT | inactive |
| FTCEPARFKDYQWNNEGYCL | inactive |
| FTCQSHAILGVDDDTWGRTN | inactive |
| FTFRLVKNTTLNGIYFCIKR | 0.787 ± 0.18 |
| FTINV | inactive |
| FTIVTQCEPTRLSCISDNIR | inactive |
| FTLDYLNSGSI | inactive |
| FTLPKHFTRIL | inactive |
| FTMALMLALTTGISSMSVGG | 0.345 ± 0.37 |
| FTPLCSNVAGRNMEQYCS | inactive |
| FTWIFRFMPIWHACDKRVFE | 1.71 ± 0.088 |
| FVANISFWFSVFNRVYESYT | 0.841 ± 0.1 |
| FVFIVCMCSSTWAQMYGLNW | 1.25 ± 0.084 |
| FVGVYKMGFASCSMSGSGWV | inactive |
| FVHRLPGWGSKLKTIRTCSN | inactive |
| FVLKRYRCFLYLVQYDISTL | -0.326 ± 0.98 |
| FVRLHSFA | inactive |
| FVSEFMTSSTYLVPTVHITV | inactive |

| Substance | amyloid nucleation score |
| --- | --- |
| FVSGYVVALCYPWQGCPGVC | 1.97 ± 0.093 |
| FVSLALGFGILSFYKDRLWD | 0.598 ± 0.33 |
| FVSPNLIVMVWVHWRSEINR | inactive |
| FVTAKQCVVCRQ | inactive |
| FVTSVQVRFNMGFFAELFAV | inactive |
| FVVLLGFYHLASQDAYRGAL | 1.09 ± 0.14 |
| FVYSCNC | 2.34 ± 0.08 |
| FWCIYS | inactive |
| FWFWMIVDNRWYSLAVEARW | -0.304 ± 0.8 |
| FWKKLWNSSF | inactive |
| FWPMFSVVVRRRKFHSTPVH | inactive |
| FWTLDRLRMLYVAILQPWSD | inactive |
| FWVVISLMSSRVTVASDDHI | inactive |
| FWWKSYFFNLKV | inactive |
| FYEVRVRRVRVHVKEQPLLH | -0.406 ± 1.3 |
| FYFDRTSVIMRLFSMWNNFG | inactive |
| FYFPLYDL | inactive |
| FYKAFIL | inactive |
| FYKLTLRSVRFLSFTYRIGA | inactive |
| FYLGEYETLFVKDIRGDSVP | -0.97 ± 1.1 |
| FYLGLAYVLSWVGFCVIGVS | inactive |
| FYLHSFRLNHSLRDLSDLGE | inactive |
| FYMLMISSQYFVTRLAPYFP | -0.015 ± 0.87 |
| FYPLYSNEHCCG | inactive |

| Substance | amyloid nucleation score |
| --- | --- |
| FYPTNGSGSRVLMHGNSMLC | inactive |
| FYRRNAI | inactive |
| FYSCGNDAASMLFRLTSGGI | inactive |
| FYSFWYPFTVSAMRLYWCSW | inactive |
| FYTFYSHLNELLHL | -0.009 ± 0.66 |
| FYVPVYGERV | inactive |
| FYVVNSWPRMMCGQARILCL | inactive |
| FYWSFIRLFRS | inactive |
| FYYANMTRSKILAPFSRPSR | inactive |
| FYYDYSLCPCYYVGDYEHES | 2.41 ± 0.056 |
| FYYLTKSGYAFRLSKTSP | inactive |
| GAFPRGSS | inactive |
| GANKVSNRRVMSSDPTSQCL | inactive |
| GAQAKC | inactive |
| GAQKYSFPRVSWPILGRIDY | inactive |
| GATNDH | inactive |
| GAVLLSGEEL | 0.871 ± 0.17 |
| GCAKVKLI | -0.292 ± 0.75 |
| GCASRLFVGWRGSCRMCGTY | inactive |
| GCECGISHLVLGAKVVPSMI | inactive |
| GCGPLNFSVESHQCLKS | inactive |
| GCGRTEMNVSMSGPSRMVDL | inactive |
| GCKRSSGKRFLCRGAPCDEW | inactive |
| GCLEFGVMEFPGEDEFNFLG | inactive |

| Substance | amyloid nucleation score |
| --- | --- |
| GCLIAGYKKRDANKFCGVAL | inactive |
| GCLVRCDFVSQCLNWDG | inactive |
| GCPIFAIFFDLTLCDNARYM | 2.47 ± 0.08 |
| GCSRWCFGDTGIE | inactive |
| GCVMVKSSLMFSLLR | -0.883 ± 1.2 |
| GDCVLDPDLRSWDEW | inactive |
| GDFTSLDVVYYGNDCTLF | inactive |
| GDKISANACSMNFFDMFW | inactive |
| GDSGPDKKWHFTKY | inactive |
| GDTHESFVGRTVYPDRLESH | inactive |
| GECTWTDVPMANSPRFVSEY | inactive |
| GEKIDRVM | inactive |
| GELRPLIVGDNLGLS | inactive |
| GESNLCDAG | inactive |
| GFCICEYDRCTIFSYNHYGA | 2.94 ± 0.054 |
| GFINKDVF | inactive |
| GFLTKCALWKIWF | inactive |
| GFPKWDESSMSTFDCSIRSR | inactive |
| GFRECTRNFFL | 0.361 ± 0.17 |
| GFSGPSLGQIAG | inactive |
| GFSNFQEVVGILYCQFWVLL | 1.33 ± 0.075 |
| GFSNITMCLA | inactive |
| GFTRFFYLSRLMVGNMI | inactive |
| GFWLGVMVTHTSTTYSAFTP | 0.059 ± 0.29 |

| Substance | amyloid nucleation score |
| --- | --- |
| GGARMRFDQFMRHRATLASV | inactive |
| GGDSPNDARRFFNFHIYNIW | 2.05 ± 0.08 |
| GGFVLC | inactive |
| GGKHPGMCFHCEWLGYWFTS | inactive |
| GGKLGTLCSNSRYGSVHMGV | inactive |
| GGLVSCLSAARIGHHGASLE | inactive |
| GGNSWITSMLAYWLTSAHNA | inactive |
| GGYRVGFYQY | inactive |
| GHGSFE | inactive |
| GHMTVSTWWNIVYMAKGYRV | -0.425 ± 0.8 |
| GHSGKVVL | inactive |
| GICNQNIPQRGSMWLVSKTF | inactive |
| GIEADYSYMSGEGKAVCSSM | inactive |
| GIGCDLFRCADTRWIVLPSM | inactive |
| GILRQRIYFSM | inactive |
| GIMMSD | inactive |
| GKCRQGYTRMWHNYMLMGIL | inactive |
| GKDVHMKGNSKRSVWYVPQG | inactive |
| GKGSNASIGVITVDTVYIVA | 1.42 ± 0.09 |
| GKLYPKNVSWILFSAETYLY | 2.54 ± 0.075 |
| GKSTYVLFGKWNTEKTRNRG | inactive |
| GKYVVIDIGRSYFSKISGFR | inactive |
| GLDGTGHKYDGQFARRWNLR | inactive |
| GLDHSKGYLQLS | inactive |

| Substance | amyloid nucleation score |
| --- | --- |
| GLFFW | -0.669 ± 0.74 |
| GLFYMMLLTRMGRYRGERNG | 1.18 ± 0.1 |
| GLHVTCGRDYHGWMGDCSMA | inactive |
| GLKNRVSGPPFASTYFWSAL | inactive |
| GLLVWQCMWGLDKKYLHSVY | inactive |
| GLRVQCWECTIRSFGV | 0.448 ± 0.24 |
| GLSVVYSNRYNTWVRDLKDW | 0.376 ± 0.22 |
| GLSYNFHLCQVLVIFMVDGS | 1.66 ± 0.1 |
| GLTLFWITAVAQAWDWLDPL | inactive |
| GLVLISKC | inactive |
| GLVNCEHVWRIETKLVTPHL | -0.764 ± 0.76 |
| GLYPQWLGDGRWLSSGLATL | 0.138 ± 0.33 |
| GMQALIVFSSVVMRYAFVEG | -1.18 ± 1.7 |
| GMRFRCKRYVCVLQ | -0.078 ± 0.98 |
| GMTEGYYLESVGGSKFDNVV | inactive |
| GNCGRSGINCHMTGTSVVRC | inactive |
| GNCLIRLTYR | inactive |
| GNFSRLDSCFTVVRARVKCN | inactive |
| GNSAYK | inactive |
| GNSIRAVVLLRMGLELDSGV | inactive |
| GPLRVPVMMGCWRRIDRMPW | inactive |
| GPSLVVNDLFGFCMVMYLND | inactive |
| GQPAH | inactive |
| GRDAVHHCMLRESQRKLREV | inactive |

| Substance | amyloid nucleation score |
| --- | --- |
| GREFRICNSFVWVSVFIFCG | inactive |
| GRHVLGCVDITTGARSLPRM | inactive |
| GRKDAKR | inactive |
| GRLCELITSMY | inactive |
| GRLLRTMVD | inactive |
| GRPTSRLMSNWTFPSATVSW | inactive |
| GRRSNCINSVNSGTRGRRRA | inactive |
| GRSLCVVCSGLVWLCW | 2.19 ± 0.077 |
| GRSSCLSTFC | inactive |
| GRSWVLV | inactive |
| GRSYREIMDSIFCGQFFYNK | 2.45 ± 0.077 |
| GRVPLPCICDRWYYLEGWEV | -0.034 ± 0.96 |
| GSATCAS | inactive |
| GSHICGALSSRDLFSGVLRI | inactive |
| GSISIVVQM | 2.2 ± 0.075 |
| GSKFIFFLMFYGVWLRSPSK | inactive |
| GSMFFNVC | 0.254 ± 0.28 |
| GSPECPLVEV | inactive |
